In PMC9734383 (Nature Communications, 2022):

Columns and labels:
H3 HA = H3 HA (Influenza A virus H3N2, probably A/Hong …, UniProt Q91MA7, strain); experiment: SEC; details: both partners purified
[1] = molecular target: H3 HA (recombinant HA of the panel) (Influenza A virus H3N2, probably A/Hong …, UniProt Q91MA7, biotinylated (in the BLI assay)); experiment: BLI; details: both partners purified

B1: PN-SIA28 Fab (Fab, V domains shown)
VH: QVQLVESGGGVVQPGRSLRLSCAASGFPFSSYGMHWVRQAPGKGLEWVAGVSYDGSYKYYADSVKGRFTISRDSSKSTLYLQMNSLRPEDTAVYYCARPSAIFGIYIILNGLDVWGQGTTVTVSS
VL: EIVLTQSPSSVSASVGDRVTITCRATQGISSWLAWYQQKPGKPPKLLIFGASSLQSGVPSRFSGSGSGTDFTLTISSLQPEDFATYFCQQAHSFPLTFGGGTKVEIK
B1: binds (H3 HA).

B2: PN-SIA28 Fab (Fab, V domains shown)
VH: QVQLVESGGGVVQPGRSLRLSCAASGFPFSSYGMHWVRQAPGKGLEWVAGVSYDGSYKYYADSVKGRFTISRDSSKSTLYLQMNSLRPEDTAVYYCARPSAIFGIYIILNGLDVWGQGTTVTVSS
VL: EIVLTQSPSSVSASVGDRVTITCRATQGISSWLAWYQQKPGKPPKLLIFGASSLQSGVPSRFSGSGSGTDFTLTISSLQPEDFATYFCQQAHSFPLTFGGGTKVEIK
notes: also called PN-SIA28 Fab fragment
B2: binds [1].
